This note sets out measurements from patent US20230062308A1, “TREATMENT OF CK8 POSITIVE CANCERS IN RELATION WITH K-RAS GENE STATUS” (INTERNATIONAL - DRUG - DEVELOPMENT - BIOTECH, priority 2017, published 2023).

Assay [1] relates to Human HAN larynx cell line BICR18. In words: In vivo tumour growth, HAN CDX model (larynx cell line BICR18). To be noted: BICR18 s.c. in SCID mice; HzR022 (D-A10) 10 mg/kg i.p. BIW × 3; cisplatin 2.5 mg/kg i.p. QW × 3. How it is done:
Human HAN larynx cell line BICR18 was subcutaneously injected in SCID mice, with a concentration of 1.10^6 cells per injection (200 μL). Mice were randomized when the tumours reached a mean volume of about 100 mm^3 for the 9 groups (total 45 mice). […] The endpoint was defined by animal ethics as a tumour diameter of >18 mm, significant weight loss or alteration of animal well-being. In order to assess the effectiveness of the compounds on tumourigenesis, tumour volume was measured two times a week. The size of the primary tumours were measured using calipers and the tumour volume (TV) was extrapolated to a sphere using the formula TV= 4/3π×r^3, by calculating the mean radius from the two measurements. The median and standard deviation were also calculated for each group. Median is preferred to mean in order to exclude the extreme values. MAb treatment was administered by intraperitoneal injection twice a week during three weeks at 10 or 1 mg/kg doses. The cisplatin (Myland) treatment was administered by intraperitoneal injection once per week during three weeks at 1, 2.5 or 5 mg/kg doses. The product was prepared in accordance with the sponsor's guidelines, i.e. diluted in PBS. Mice were sacrificed when the tumours reached a maximum volume of 1600 mm^3. […] The t-test (two-tailed test) was performed on the tumour volume values (mm^3) measured on the day of sacrifice.

Another assay concerns the target T1, CK8 (Homo sapiens, UniProt P05787).
T1 sequence (P05787 1-483): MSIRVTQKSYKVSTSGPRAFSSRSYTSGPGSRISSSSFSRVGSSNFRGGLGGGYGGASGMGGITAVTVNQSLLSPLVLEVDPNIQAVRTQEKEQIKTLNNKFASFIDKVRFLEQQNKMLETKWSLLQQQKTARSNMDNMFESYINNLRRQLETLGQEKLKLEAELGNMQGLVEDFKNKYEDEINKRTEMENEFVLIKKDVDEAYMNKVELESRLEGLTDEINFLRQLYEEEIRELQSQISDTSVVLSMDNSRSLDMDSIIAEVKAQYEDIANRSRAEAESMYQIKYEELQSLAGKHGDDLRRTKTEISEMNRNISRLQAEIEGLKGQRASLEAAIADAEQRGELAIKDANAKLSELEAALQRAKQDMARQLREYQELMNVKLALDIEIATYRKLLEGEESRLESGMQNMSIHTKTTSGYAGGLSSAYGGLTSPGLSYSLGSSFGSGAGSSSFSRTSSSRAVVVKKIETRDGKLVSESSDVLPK
In words: Antibody internalisation assay by flow cytometry. In kind it is cell-based. Also noted: methods to investigate on CK8 cellular expression at the cell surface analysed by flow cytometry; endogenous in cells. To be noted: 4° C. versus 37° C., 24 hours; 0.78 or 0.39 μg/mL; HCT116, U87MG, BICR56, BxPC3, DU145 cell lines (FIG. 4-6). On the procedure: This example describes methods to investigate on HzR022 (D-A10) internalisation following CK8 detection at the cell surface analysed by flow cytometry.
Flow cytometry experiments for MAb internalisation. Briefly, 2.10^5 cells per 96 wells are incubated at 4° C. versus 37° C. during 24 hours with a dilution of unconjugated murine anti CK8 MAb at 50 μg/mL then diluted at ½. The MAb anti CK8 tested were D-A10 (IgG2b), D-F5 (IgG2a) or D-D6 (IgG1), from iDD biotech MAb panel. The isotype matched MAbs used were B-Z1 (IgG1), B-Z2 (IgG2a) or B-E4 (IgG2b) (Diaclone, Besancon, France). Unbound antibodies were washed away with PBS (Life technologies, St Aubin, France) supplemented by 1% Bovine Serum Albumin (Sigma, St Quentin Fallavier, France). Subsequently, cells are centrifuged (5 min at 400 g) and bound antibody is detected with Fluorescein Isothiocyanate (FITC) conjugated goat (Fab′)2 polyclonal anti mouse Ig (MP Biomedical, Illkirch, France) at 4° C. for 30 min. Detection reagent is washed away and cells are centrifuged (5 min at 400 g) and suspended in 300 μL PBS. Bound detection antibody is quantified on a FACSCAN (BD Biosciences, Rungis, France), (FL1 channel, 3 000 events per acquisition). During the experiment, the respective isotype controls are included to exclude any unspecific binding events
Results of experiments are shown in FIG. 4 for D-A10 MAb (at 0.78 or 0.39 μg/mL), in FIG. 5 for D-D6 (at 0.78 or 0.39 μg/mL), in FIG. 6 for D-F5 (at 0.78 or 0.39 μg/mL). One example was shown for CRC from HCT116 cell line, GBM from U87MG cell line, HAN from BIRC56 cell line, PC from BxPC3 or PRC from DU145.

On to `N.N.[Cl][Pt][Cl]` [cisplatin, reference compound], for which, in assay [1], the “tumour growth control (tumour volume, FIG. 3)” value is on record as “rapid cisplatin escape”.

B1: D-F5: murine anti-CK8 monoclonal antibody (IgG2a); VL SEQ ID NO: 40, VH SEQ ID NO: 42 (antibody, V domains shown)
VH: QVQLKESGPGLVAPSQSLSITCTVSGFSLTSYGVHWVRQPPGKGLEWLGVIWAGGSTNYNSALMSRLRISKDNSKSQVFLKMNSLQTDDTAMYYCARIYGNYGRFAYWGQGTSVTVSS
VL: DVVMTQTPLSLPVSLGDQASISCRSSQSIVHSNGNTYLEWYLQKPGQSPKLLIYKVSNRLSGVPDRFSGSGSGTDFTLKISRVEAEDLGVYYCFQGSLVPLTFGGGTKLEIK
modifications: VH-mR022 (D-F5); VL-mR022 (D-F5)
In the case of B1, the internalization potential entry with CK8 is listed as “lower internalization potential”.

B2: D-D6: murine anti-CK8 monoclonal antibody (IgG1); VL SEQ ID NO: 36, VH SEQ ID NO: 38 (antibody, V domains shown)
VH: DVQLQESGPGLVKPSQSLSLTCTVTGYSITSDYAWNWIRQFPGNKLEWMGYISYSGRTSYNPSLKSRISITRDTSKNHFFLQLNSVTTEDTATYYCAPLTTGVGYAMDYWGQGTSVTVSS
VL: DVVMTQTPLSLPVSLGDQASISCRSSQSLVHSNGNTYLHWYLQKPGQSPKVLIYKVSNRFSGVPDRFSGSGSGTDFTLKISRVEAEDLGVYFCSQSTHVPFTFGGGTKLEIK
modifications: VH-mR022 (D-D6); VL-mR022 (D-D6)
For B2, in the assay with CK8, the internalization potential entry was “highest internalization potential”.

B3: D-A10: murine anti-CK8 monoclonal antibody (IgG2b); VL SEQ ID NO: 2, VH SEQ ID NO: 4 (antibody, V domains shown)
VH: EVQLLETGGGLVQPGGSRGLSCEGSGFTFSGFWMSWVRQTPGKTLEWIGDINSDGSAIKYAPSIKDRFTIFRDNDKSTLYLQMSNVRSEDTATYFCIAHYSGGGFAYWGQGTSVTVSS
VL: NIVMTQAAPSVPVTPGESVSISCRSSKSLLYSNGNTYLYWFLQRPGQSPQRLIYYMSNLASGVPDRFSGRGSGTDFTLRISRVEAEDVGVYYCMQSLEYPFTFGGGTKLEIK
modifications: VH mD-A10; VLmD-A10
Take B3: the internalization potential result in the assay with CK8 is reported as “highest internalization potential”.
